Data set [1] is described as follows: GLP monkey toxicity study: dose and exposure multiples versus human 4 mg QD dose. It is filed as in vivo, cynomolgus monkey. An excerpt: The rationale for a 12-week study treatment duration was based on the following: (i) the 12-week treatment period was warranted from a safety perspective given the data from the 13-week cynomolgus monkey toxicity study; (ii) the 12-week dosing period was anticipated to provide greater information on the PK profile of CSJ117 in humans (as compared to a shorter study duration); (iii) completing 12-weeks of dosing prior to dose escalation(s) provided greater safety information, as systemic exposure is expected to have achieved steady state; (iv) 12 weeks was expected to be sufficient duration to allow assessment of PD effects in the AIC.
Lung weight scaling was selected for the HED calculation due to the CSJ117-related changes in the respiratory tract and the lack of significant systemic side effects in the monkey toxicity studies. • Exposure multiples were also calculated to compare the observed systemic exposure in monkeys with the systemic exposure in humans, based on the observed single dose PK data in healthy subjects, assuming either linear or nonlinear PK. For multiple daily inhalations in humans, assuming linear and time-independent PK (i.e., a 2.4 fold accumulation ratio), the estimated human systemic exposure at steady state for a 4 mg dose was 948-fold below the monkey Day 91 systemic exposure.

The subject of data set [2] is late asthmatic response (LAR). Kind of data set: Hill equation simulation of CSJ117 dose-response (LAR efficacy). Further details: species or system human. To be noted: for Predicted efficacy: range over Emax scenarios; for ED50: Dose = 4 mg, E = 47.6%, Hill slope n = 1. The method, then: Simulation of Dose-Response Curves of CSJ117 from Doses Ranging from 0.5 to 8 mg:
% Efficacy of CSJ117 in PoC study compared to placebo was calculated using following formula: % E=[(B−A)/B]×100, where, E=Efficacy; A and B are LAR measured by max fall % FEV1 value in treated and placebo groups, respectively.
Maximum efficacy (Emax) of CSJ117 is unknown at this time and three potential values of Emax are possible:
From Emax and ED50 in each scenario above, a dose-response curve was generated using Hill equation to assess range of efficacy values resulting from 0.5 to 8 mg once daily dose of CSJ117 (FIGS. 6 and 7). Efficacy due to 0.5 mg and 8 mg once daily dose of CSJ117 is predicted to range from 10-35% and 65-88% of maximum effect, respectively. As visible in plots of FIGS. 6 and 7, the planned dose range of 0.5, 1, 2, 4, and 8 mg o.d. of CSJ117 during Ph2B (Example 4) is expected to adequately describe the dose-response for CSJ117.

The conditions of data set [3]: human, in vivo, inhaled or intranasal, 32 mg.
Protocol: In addition, the PK analysis set for the healthy Japanese SAD Study included 18 subjects, six subjects per single inhaled dose of 9, 16 and 32 mg administered via Concept 1 device.

Results on 1 molecule are retold here after patent publication US20230082287A1, “METHODS OF TREATING AN INFLAMMATORY OR OBSTRUCTIVE AIRWAY DISEASE USING ANTI-TSLP ANTIBODY” (Novartis AG, priority 2020, published 2023).

B1: CSJ117: potent neutralizing antibody fragment (Fab) directed against human TSLP; heavy chain SEQ ID NO: 9, light chain SEQ ID NO: 19 (antibody)
heavy: EVQLVESGGGLVKPGGSLRLSCAASGFTFSDYWMHWVRQAPGKGLEWVGHIKSKTDAGTTDYAAPVKGRFTISRDDSKNTLYLQMNSLKTEDTAVYYCAREIYYYAFDSWGQGTLVTVSSASTKGPSVFPLAPSSKSTSGGTAALGCLVKDYFPEPVTVSWNSGALTSGVHTFPAVLQSSGLYSLSSVVTVPSSSLGTQTYICNVNHKPSNTKVDKRVEPKSC
light: SYELTQPLSVSVALGQTARITCSGDNIGSKYVHWYQQKPGQAPVLVIYGDNERPSGIPERFSGSNSGNTATLTISRAQAGDEADYYCQAADWVDFYVFGGGTKLTVLGQPKAAPSVTLFPPSSEELQANKATLVCLISDFYPGAVTVAWKADSSPVKAGVETTTPSKQSNNKYAASSYLSLTPEQWKSHRSYSCQVTHEGSTVEKTVAPTECS
As for B1, the “Accumulation ratio in humans” value in data set [1] (cynomolgus monkey, in vivo) was 2.4 fold. Besides, in data set [1] (cynomolgus monkey, in vivo), the “Systemic accumulation ratio observed in monkeys” value came to 148 fold. For the same molecule, the “Dose multiple: human equivalent dose of monkey NOAEL versus 4 mg QD” value in data set [1] (lung weight scaling) was found to be 51.5 fold. The Predicted efficacy is 10-35 % of maximum effect in data set [2] (0.5 mg once daily dose) and 65-88 % of maximum effect in data set [2] (8 mg once daily dose). The ED50 in data set [2] (Scenario 1: Emax 100%) is listed as 4.4 mg; in data set [2] (Scenario 2: Emax 80%) it was 2.3 mg; in data set [2] (Scenario 3: Emax 60%), 1.0 mg. For the same molecule, the “mean T1/2” value in data set [3] lay in the range of 18.6 to 22.4 h.
